{"source": "patent US20100184658A1", "about": "(published 2010)", "experiment_in_all_cases": "cell-based or functional assay", "key": {"PKA(h)": {"biological_target": "PKA(h) (human (printed as (h)), UniProt P17612 1-351)"}, "PRKCZ (PKC zeta)": {"biological_target": "T1, PRKCZ (PKC zeta) (human (printed as (h)), UniProt Q05513 1-592, limits assumed)", "T1 sequence (looked up)": "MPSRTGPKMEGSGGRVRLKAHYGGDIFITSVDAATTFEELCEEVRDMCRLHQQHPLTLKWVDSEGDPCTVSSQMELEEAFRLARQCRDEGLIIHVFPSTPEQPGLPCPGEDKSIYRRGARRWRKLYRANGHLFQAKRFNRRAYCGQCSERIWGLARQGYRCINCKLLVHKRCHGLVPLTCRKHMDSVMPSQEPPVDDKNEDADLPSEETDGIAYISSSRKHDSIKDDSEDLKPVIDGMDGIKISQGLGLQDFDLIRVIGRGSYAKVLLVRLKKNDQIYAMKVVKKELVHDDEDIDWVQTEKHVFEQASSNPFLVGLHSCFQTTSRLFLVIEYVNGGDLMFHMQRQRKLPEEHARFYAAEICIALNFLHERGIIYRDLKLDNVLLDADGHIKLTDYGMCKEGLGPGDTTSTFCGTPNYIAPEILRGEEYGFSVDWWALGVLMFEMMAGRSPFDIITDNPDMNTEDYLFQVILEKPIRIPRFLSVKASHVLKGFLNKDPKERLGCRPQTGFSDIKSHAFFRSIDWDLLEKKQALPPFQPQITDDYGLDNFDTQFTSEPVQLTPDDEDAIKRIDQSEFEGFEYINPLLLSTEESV"}, "MAPK2(h)": {"biological_target": "MAPK2(h) (human (printed as (h)), UniProt P28482 1-360)", "sequence (P28482 whole entry)": "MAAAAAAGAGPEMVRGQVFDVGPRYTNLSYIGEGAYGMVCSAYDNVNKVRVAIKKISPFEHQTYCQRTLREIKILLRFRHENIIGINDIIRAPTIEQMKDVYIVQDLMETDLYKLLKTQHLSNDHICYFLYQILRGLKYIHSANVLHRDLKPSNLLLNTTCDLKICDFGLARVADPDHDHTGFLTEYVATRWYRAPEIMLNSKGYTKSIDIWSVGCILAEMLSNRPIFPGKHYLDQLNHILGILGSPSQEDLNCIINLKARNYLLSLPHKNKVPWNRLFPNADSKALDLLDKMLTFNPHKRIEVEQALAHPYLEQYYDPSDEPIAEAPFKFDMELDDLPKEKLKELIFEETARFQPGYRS"}}, "data": [{"binder": "SGRPPMIVWFNRPFLIAVSHTHGQTILFMAKVINPVGA", "note": "[D3 peptide]", "values": [{"measurement": "D3 at 0.1 µM % activity", "setting": "PKA(h)", "value": 115, "unit": "%"}, {"measurement": "D3 at 1 µm % activity", "setting": "PKA(h)", "value": 105, "unit": "%"}, {"measurement": "D3 at 0.1 µM % activity", "setting": "PRKCZ (PKC zeta)", "value": 95, "unit": "%"}, {"measurement": "D3 at 1 µm % activity", "setting": "PRKCZ (PKC zeta)", "value": 42, "unit": "%"}, {"measurement": "IC50", "setting": "PRKCZ (PKC zeta)", "value": 1040, "unit": "nM"}, {"measurement": "D3 at 0.1 µM % activity", "setting": "MAPK2(h)", "value": 96, "unit": "%"}, {"measurement": "D3 at 1 µm % activity", "setting": "MAPK2(h)", "value": 96, "unit": "%"}]}]}
